Earlier results on one substance are cited in article PMC4660202.

pKd: −log10 of the molar value.

One may read the pKd as −log10 of the Kd, conventionally taken in molar units.

The series concerns the target IZUMO1 ECD (Mus musculus) (UniProt Q9D9J7).
Chain of UniProt Q9D9J7 (Q9D9J7 22-319): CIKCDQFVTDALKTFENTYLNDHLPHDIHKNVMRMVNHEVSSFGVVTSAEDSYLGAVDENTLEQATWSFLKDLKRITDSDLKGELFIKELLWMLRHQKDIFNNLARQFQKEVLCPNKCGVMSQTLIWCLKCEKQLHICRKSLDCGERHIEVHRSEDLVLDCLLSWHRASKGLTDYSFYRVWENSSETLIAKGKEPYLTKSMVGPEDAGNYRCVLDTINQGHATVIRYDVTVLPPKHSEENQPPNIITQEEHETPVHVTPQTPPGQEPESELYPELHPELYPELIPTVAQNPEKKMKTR

For JUNO (from UniProt Q9EQF4), the pKd is 4.91.
